B1: Microtubule-associated tumor suppressor candidate 2 (Homo sapiens), Q5JR59-3 (parent)
chain: MGHCCCKPYNCLQCLDKTNESALVKEKELSIELANIRDEVAFHTAKCEKLQKEKEELERRFEDEVKRLGWQQQAELQELEERLQLQFEAEMARLQEEHGDQLLSIRCQHQEQVEDLTASHDAALLEMENNHTVAITILQDDHDHKVQELMSTHELEKKELEENFEKLRLSLQDQVDTLTFQSQSLRDRARRFEEALRKNTEEQLEIALAPYQHLEEDMKSLKQVLEMKNQQIHEQEKKILELEKLAEKNIILEEKIQVLQQQNEDLKARIDQNTVVTRQLSEENANLQEYVEKETQEKKRLSRTNEELLWKLQTGDPTSPIKLSPTSPVYRGSSSGPSSPARVSTTPR
partner: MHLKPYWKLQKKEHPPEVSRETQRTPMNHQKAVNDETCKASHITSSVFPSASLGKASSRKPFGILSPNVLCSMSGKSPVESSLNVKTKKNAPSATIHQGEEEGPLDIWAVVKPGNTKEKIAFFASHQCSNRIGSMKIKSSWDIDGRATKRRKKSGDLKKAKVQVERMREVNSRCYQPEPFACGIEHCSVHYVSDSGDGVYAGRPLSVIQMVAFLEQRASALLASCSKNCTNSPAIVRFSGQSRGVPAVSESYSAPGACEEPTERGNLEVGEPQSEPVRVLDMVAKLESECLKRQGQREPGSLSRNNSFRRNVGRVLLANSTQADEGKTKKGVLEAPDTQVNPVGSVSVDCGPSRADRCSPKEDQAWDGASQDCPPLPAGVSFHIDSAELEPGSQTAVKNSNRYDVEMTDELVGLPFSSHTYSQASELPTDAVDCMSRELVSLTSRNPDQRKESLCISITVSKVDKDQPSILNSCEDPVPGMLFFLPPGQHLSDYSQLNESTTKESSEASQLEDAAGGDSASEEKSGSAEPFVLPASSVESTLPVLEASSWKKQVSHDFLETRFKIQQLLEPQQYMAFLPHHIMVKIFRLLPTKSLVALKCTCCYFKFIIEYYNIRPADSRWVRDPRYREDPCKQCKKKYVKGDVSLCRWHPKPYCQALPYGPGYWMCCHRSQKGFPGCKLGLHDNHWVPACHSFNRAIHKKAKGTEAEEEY
B2: Trichoplein keratin filament-binding protein (Homo sapiens), Q9BT92 (parent)
chain: MALPTLPSYWCSQQRLNQQLARQREQEARLRQQWEQNSRYFRMSDICSSKQAEWSSKTSYQRSMHAYQREKMKEEKRRSLEARREKLRQLMQEEQDLLARELEELRLSMNLQERRIREQHGKLKSAKEEQRKLIAEQLLYEHWKKNNPKLREMELDLHQKHVVNSWEMQKEEKKQQEATAEQENKRYENEYERARREALERMKAEEERRQLEDKLQAEALLQQMEELKLKEVEATKLKKEQENLLKQRWELERLEEERKQMEAFRQKAELGRFLRHQYNAQLSRRTQQIQEELEADRRILQALLEKEDESQRLHLARREQVMADVAWMKQAIEEQLQLERAREAELQMLLREEAKEMWEKREAEWARERSARDRLMSEVLTGRQQQIQEKIEQNRRAQEESLKHREQLIRNLEEVRELARREKEESEKLKSARKQELEAQVAERRLQAWEADQQEEEEEEEARRVEQLSDALLQQEAETMAEQGYRPKPYGHPKIAWN
B3: Mothers against decapentaplegic homolog 3 (Homo sapiens), P84022 (parent)
chain: MSSILPFTPPIVKRLLGWKKGEQNGQEEKWCEKAVKSLVKKLKKTGQLDELEKAITTQNVNTKCITIPRSLDGRLQVSHRKGLPHVIYCRLWRWPDLHSHHELRAMELCEFAFNMKKDEVCVNPYHYQRVETPVLPPVLVPRHTEIPAEFPPLDDYSHSIPENTNFPAGIEPQSNIPETPPPGYLSEDGETSDHQMNHSMDAGSPNLSPNPMSPAHNNLDLQPVTYCEPAFWCSISYYELNQRVGETFHASQPSMTVDGFTDPSNSERFCLGLLSNVNRNAAVELTRRHIGRGVRLYYIGGEVFAECLSDSAIFVQSPNCNQRYGWHPATVCKIPPGCNLKIFNNQEFAALLAQSVNQGFEAVYQLTRMCTIRMSFVKGWGAEYRRQTVTSTPCWIELHLNGPLQWLDKVLTQMGSPSIRCSSVS
partner: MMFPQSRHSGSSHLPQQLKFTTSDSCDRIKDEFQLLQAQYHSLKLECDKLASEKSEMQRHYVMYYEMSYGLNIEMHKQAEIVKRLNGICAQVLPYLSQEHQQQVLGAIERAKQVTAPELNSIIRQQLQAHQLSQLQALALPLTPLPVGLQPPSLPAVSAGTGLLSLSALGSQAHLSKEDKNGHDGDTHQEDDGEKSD

Variants of: B1
Settings: with fbx34_human FBXO34, Q9NWN3

Variant	effect of a mutation on the interaction
MGHCCCKPYNCLQCLDKTNESALVKEKELSIELANIRDEVAFHTAKCEKLQKEKEELERRFEDEVKRLGWQQQAELQELEERLQLQFEVEMARLQEEHGDQLLSIRCQHQEQVEDLTASHDAALLEMENNHTVAITILQDDHDHKVQELMSTHELEKKELEENFEKLRLSLQDQVDTLTFQSQSLRDRARRFEEALRKNTEEQLEIALAPYQHLEEDMKSLKQVLEMKNQQIHEQEKKILELEKLAEKNIILEEKIQVLQQQNEDLKARIDQNTVVTRQLSEENANLQEYVEKETQEKKRLSRTNEELLWKLQTGDPTSPIKLSPTSPVYRGSSSGPSSPARVSTTPR [A89V]	with no effect

Variants of: B2
Settings: with ndk7_human NME7, Q9Y5B8
Sequence of ndk7_human NME7, Q9Y5B8 (Q9Y5B8 whole entry): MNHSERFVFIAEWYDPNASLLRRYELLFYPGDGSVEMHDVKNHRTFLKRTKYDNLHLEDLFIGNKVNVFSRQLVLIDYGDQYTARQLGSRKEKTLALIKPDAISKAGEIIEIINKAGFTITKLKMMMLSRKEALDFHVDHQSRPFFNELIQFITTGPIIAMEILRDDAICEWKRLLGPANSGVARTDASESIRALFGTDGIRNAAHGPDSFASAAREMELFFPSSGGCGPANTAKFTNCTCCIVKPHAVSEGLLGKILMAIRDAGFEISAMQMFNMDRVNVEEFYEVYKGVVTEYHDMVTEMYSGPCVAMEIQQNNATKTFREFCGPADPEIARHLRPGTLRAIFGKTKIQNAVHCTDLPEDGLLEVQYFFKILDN

Variant	effect of a mutation on the interaction
MALPTLPSYWCSQQRLNQQLARQREQEARLRQQWEQNSRYFRMSDICSSKQAEWSSKTSYQRSMHAYQREKMKEEKRRSLEARREKLRQLMQEEQDLLARELEELRLSMNLQERRIREQHGKLKSAKEEQRKLIAEQLLYEHWKKNNPKLREMELDLHQKHVVNSWEMQKEEKKQQEATAEQENKRYENEYERARREALERMKAEEERRQLEDKLQAEALLQQMEELKLKEVEATKLKKEQENLLKQRWELERLEEERKQMEAFRQKAELGRFLRHQYNAQLSRRTQQIQEELEADRRILQALLEKEDESQRLHLARREQVMADVAWMKQAIEEQLQLERAREAELQMLLREEAKEMWEKREAEWARERSARDRLMSEVLTGRQQQIQEKIEQNRRAQEESLKHREQLIRNLEEVRKLARREKEESEKLKSARKQELEAQVAERRLQAWEADQQEEEEEEEARRVEQLSDALLQQEAETMAEQGYRPKPYGHPKIAWN [E417K]	with no effect

Variants of: B3
Settings: with tle5_human TLE5, Q08117

Variant	effect of a mutation on the interaction
I170V	with no effect

Variants of: B3
Settings: with tle5_human TLE5, Q08117
Remark: another data set of the same source

Variant	effect of a mutation on the interaction
P393L	disrupting interaction strength
